Assay results: patent publication US20210180049A1 (CHUGAI SEIYAKU KABUSHIKI KAISHA, priority 2013, published 2021)

How the values were obtained:
[1] = target: T1, human IL-6 receptor (hIL-6R) (Homo sapiens, UniProt P08887); assay: IgG ELISA for hIL-6R binding under small molecule conditions of Table 12; conditions: IgG 2.5 μg/mL
T1 sequence (P08887 20-357 limits assumed): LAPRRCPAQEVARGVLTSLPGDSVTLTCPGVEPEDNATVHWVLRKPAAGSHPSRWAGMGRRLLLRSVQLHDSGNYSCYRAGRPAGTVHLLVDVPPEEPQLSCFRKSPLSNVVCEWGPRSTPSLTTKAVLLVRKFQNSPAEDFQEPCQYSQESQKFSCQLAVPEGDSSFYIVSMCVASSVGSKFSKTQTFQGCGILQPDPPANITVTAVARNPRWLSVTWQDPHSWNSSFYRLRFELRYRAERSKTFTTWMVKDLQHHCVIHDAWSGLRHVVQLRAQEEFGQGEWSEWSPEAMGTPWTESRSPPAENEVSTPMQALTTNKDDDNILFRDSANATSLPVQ
Procedure: Three types of obtained antibodies 6RNMSC1-2_F02, 6RNMSC1-3_G02, and GC413 were subjected to ELISA under the nine conditions shown in Table 12. The antigen used was biotin-labeled hIL-6R.
First, a StreptaWell 96 microtiter plate (Roche) was coated with 100 μL of PBS containing biotin-labeled hIL-6R at room temperature for one hour or longer. […] 100 μL of each of the purified IgGs prepared at 2.5 μg/mL using Sample Buffer containing small molecules at the final concentrations shown in Table 12 were added to each well, and the plate was let still at room temperature for one hour to allow each IgG to bind to biotin-labeled hIL-6R present in each well. After washing with Wash Buffer containing small molecules at the final concentrations shown in Table 12, HRP-conjugated anti-human IgG antibody (BIOSOURCE) diluted with Sample Buffer containing the same small molecules was added to each well and the plate was incubated for one hour. After washing with Wash Buffer containing respective small molecules, the chromogenic reaction of TMB single solution (ZYMED) added in each well was terminated by adding sulfuric acid. Then, the color development was measured by absorbance at 450 nm.

[2] = target: T1, human IL-6 receptor (hIL-6R); assay: IgG ELISA for hIL-6R binding in the presence of amino acids and amino acid metabolites (Table 14); conditions: IgG 2.5 μg/mL
Procedure: Meanwhile, each of the amino acids and metabolites thereof were appropriately prepared at the concentrations shown in Table 14 using the buffers shown in Table 13. The antigen used was biotin-labeled hIL-6R.
First, a StreptaWell 96 microtiter plate (Roche) was coated with 100 μL of PBS containing biotin-labeled antigens at room temperature for one hour or longer. […] 100 μL of each of the purified IgGs prepared at 2.5 μg/mL using Sample Buffer containing small molecules at the final concentrations shown in Table 14 were added to each well, and the plate was let still at room temperature for one hour to allow each IgG to bind to the antigen present in each well. After washing with Wash Buffer containing amino acids and amino acid metabolites at the final concentrations shown in Table 14, HRP-conjugated anti-human IgG antibody (BIOSOURCE) diluted with Sample Buffer containing amino acids and amino acid metabolites was added to each well, and the plate was incubated for one hour. After washing with Wash Buffer containing the respective amino acids and amino acid metabolites, the chromogenic reaction of TMB single solution (ZYMED) added in each well was terminated by adding sulfuric acid. Then, the color development was measured by absorbance at 450 nm.

[3] = target: T1, human IL-6 receptor (hIL-6R); assay: SPR (Biacore T200) of 6RNMSC1-2_F02 with hIL-6R with or without kynurenine or ATP; type: binding; conditions: 1 μmol/L hIL-6R
Excerpt: Biacore T200 (GE Healthcare) was used to analyze the interaction of antigen-antibody reaction between 6RNMSC1-2_F02 and human IL-6 receptor (hIL-6R). An appropriate amount of protein A (Invitrogen) was immobilized onto Sensor chip CM5 (GE Healthcare) by the amine coupling method. The antibody of interest was captured onto the sensor chip, and the antigen hIL-6R was allowed to interact. The running buffer used was 20 mmol/L ACES, 150 mmol/L NaCl, 0.05% (w/v) Tween 20, pH 7.4. The interaction with the antigen hIL-6R was measured at 25° C. hIL-6R was diluted with the running buffer, the running buffer containing 100 μmol/L kynurenine, or, as a control, the running buffer containing 10 mmol/L ATP.
Diluted hIL-6R solutions and the running buffer which is the blank were injected at a flow rate of 10 μL/min for one minute and hIL-6R was allowed to interact with 6RNMSC1-2_F02 captured on the sensor chip. Then, the running buffer was run at a flow rate of 10 μL/min for one minute to observe the dissociation of hIL-6R from the antibody. […] The dissociation constant KD (M) of 6RNMSC1-2_F02 for hIL-6R was calculated from the kinetic parameters, the association rate constant ka (1/Ms) and the dissociation rate constant kd (l/s), calculated based on the sensorgrams obtained by the measurements. Each parameter was calculated using Biacore T200 Evaluation Software (GE Healthcare).

[4] = target: T1, human IL-6 receptor (hIL-6R); assay: SPR effect of kynurenine concentration on binding to immobilized hIL-6R; conditions: 1 μg/mL antibody, 180 seconds
Procedure: Next, the effect of kynurenine concentration on antigen-antibody reaction between 6RNMSC1-2_F02 and hIL-6R was assessed using Biacore T200 (GE Healthcare). The running buffer used was 20 mmol/L ACES, 150 mmol/L NaCl, 0.05% (w/v) Tween 20, pH 7.4. Antigen-antibody reaction between 6RNMSC1-2_F02 and human IL-6R was assayed at 25° C. hIL-6R was immobilized onto Sensor chip CM5 by amine coupling. As an analyte, 1 μg/mL 6RNMSC1-2_F02 diluted with 20 mmol/L ACES, 150 mmol/L NaCl, 0.05% (w/v) Tween 20, pH 7.4, containing kynurenine adjusted to various concentrations were allowed to interact for 180 seconds and changes in the amount of binding were observed.

hIL-6R = target: T2, hIL-6R (Homo sapiens, UniProt P08887); type: binding; conditions: Octet
T2 sequence (P08887 20-357): T1 sequence (P08887 20-357 limits assumed)
Procedure: Octet ([…]) was used to assess the effect of various small molecules on the antigen-antibody reaction between hIL-6R and the kynurenine-switch antibody 6RNMSC1-2_F02 obtained from a library. A total of eight molecules shown in Example (7-5), which are kynurenine and derivatives thereof, were evaluated as small molecules. The assay buffer used was TBS, pH 7.4, and measurements were carried out at 30° C. Biotinylated hIL-6R was immobilized onto a streptavidin sensor chip, the antibody was allowed to interact, and changes in the amount of its binding were observed. The antibody was diluted using the assay buffer or the assay buffer to which either one of the small molecules has been added. The final concentration of each small molecule was adjusted to 100 uM, while the final antibody concentration was adjusted to 10 μg/mL.

B1: 6RNMSC1-2_F02: antibody binding hIL-6R in the presence of kynurenine; heavy chain SEQ ID NO: 32, light chain SEQ ID NO: 33 (antibody, listed as Homo sapiens, V domains shown)
VH: QVQLVQSGAEVKKPGSSVKVSCKASGGTFSSYAISWVRQAPGQGLEWMGGIIPIFGTANYAQKFQGRVTITADESTSTAYMELSSLRSEDTAVYYCARDAPVVARPRGAFDIWGQGTMVTVSS
VL: DIVMTQTPLSSPVTLGQPASISCRSSQSLVHSDGNTYLSWLQQRPGQPPRLLIHEISNRFSGVPDRFSGSGAGTNFTLKISRVEAEDVGVYYCMQATQFPRTFGQGTKVEIK
Q: Which “absorbance under condition 9 (no small molecule) compared to condition 8 (cocktail of all small molecules)” value ([1]; absorbance at 450 nm) does the source give for B1 here?
A: The value was “significantly lower”.

Q: What about the “small molecule in whose presence the antibody binds hIL-6R” value ([1]; conditions 1-9 of Table 12, absorbance at 450 nm) of the same molecule?
A: The value was “binds to the antigen hIL-6R in the presence of kynurenine”.

Q: And the “absorbance under condition 5 (3-hydroxy kynurenine solution)” value ([2]; 3-Hydroxykynurenine 1 mM)?
A: The value was “high absorbance similarly to that under condition 1”.

Q: What about the “absorbance under condition 7 (no small molecule) compared to condition 1 (kynurenine solution)” value [2] of the same molecule?
A: Its value is “significantly lower”.

Q: What about the “hIL-6R binding in the presence of tryptophan” value ([2]; Tryptophan 1 mM) of the same molecule?
A: The value was “does not bind to the antigen hIL-6R”.

Q: And the “hIL-6R binding in the absence of kynurenine” value [3]?
A: The value was “not detected”.

Q: What about the “hIL-6R binding in the presence of kynurenine” value ([3]; 100 μmol/L kynurenine) of the same molecule?
A: The value was “bound to hIL-6R”.

Q: And the “effect of kynurenine concentration on the amount of binding to hIL-6R” value [4]?
A: The value was “the higher the concentration of kynurenine acting as a switch, the greater the amount of 6RNMSC1-2_F02 binding to hIL-6R”.

Q: And the “hIL-6R binding in the presence of 3-hydroxy-DL-kynurenine” value (hIL-6R; 100 uM small molecule)?
A: The value was “binding to hIL-6R was observed”.

Q: And the “hIL-6R binding in the presence of RO0635389-000-001” value (hIL-6R; 100 uM small molecule)?
A: The value was “binding to hIL-6R was observed”.

Q: What about the “hIL-6R binding in the presence of RO0635390-000-001” value (hIL-6R; 100 uM small molecule) of the same molecule?
A: Its value is “binding to hIL-6R was observed”.

Q: What about the “hIL-6R binding in the absence of kynurenine” value (hIL-6R; 30° C., antibody 10 μg/mL) of the same molecule?
A: Its value is “not observed”.

Q: What about the “hIL-6R binding in the presence of 100 uM kynurenine” value (hIL-6R; 30° C., antibody 10 μg/mL) of the same molecule?
A: Its value is “bound to hIL-6R”.
